Data as given in patent publication US20220135694A1, “NOVEL CD40-BINDING ANTIBODIES” (LAVA THERAPEUTICS B.V., priority 2019, published 2022).

Columns and labels:
[1] = biological target: T1, CD40 (Homo sapiens, UniProt P25942); test: CD40 agonistic activity in primary CLL cells, 48 h, flow cytometry; assay type: cell-based; conditions: for CD40 stimulation (viability, CD86 and CD95 expression): various concentrations, FIG. 3A-C
T1 construct: Primary chronic lymphocytic leukemia (CLL) cells express CD40 on the cell surface; endogenous in cells; host or cells: primary CLL PBMCs from untreated CLL patients
T1 sequence (P25942 21-277): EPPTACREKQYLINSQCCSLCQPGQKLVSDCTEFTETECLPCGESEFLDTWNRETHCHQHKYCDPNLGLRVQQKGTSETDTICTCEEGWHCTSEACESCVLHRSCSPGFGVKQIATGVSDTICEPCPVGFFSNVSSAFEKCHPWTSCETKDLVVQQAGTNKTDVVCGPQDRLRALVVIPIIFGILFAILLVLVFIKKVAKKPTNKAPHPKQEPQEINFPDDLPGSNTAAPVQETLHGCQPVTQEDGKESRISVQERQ
Method: PBMCs (≥90% CD5^+CD19^+) from untreated CLL patients were obtained and cryopreserved as described in Example 3. Thawed cells were kept in complete IMDM.
To assess whether binding of the VHH to CD40 has agonistic effects, primary CLL PBMCs were cultured for 48 hours in the presence of VHH, medium control or recombinant multimeric CD40 ligand (rmCD40L; 100 ng/mL, Bioconnect).
After 48 hours, cells were harvested, washed and incubated with AF700-conjugated anti-CD19 (557921), FITC-conjugated anti-CD80 (6109965), APC-conjugated anti-CD86 (555660, all BD Biosciences), PE-conjugated anti-CD5 (12-0059-42, Thermo Fisher Scientific) and PECy7-conjugated anti-CD95 (305621, Biolegend, San Diego, Calif., USA) antibodies for 20 minutes at 4° C. Alternatively, after 48 hours, cells were harvested and viability was measured using Mitotracker Orange (25-minute incubation at 37° C.) and To-pro-3 (10-minute incubation at room temperature; both Thermo Fisher Scientific). Samples were measured on a FACSCanto cytometer (BD Biosciences) and analyzed with Flowjo MacV10.
To assess whether binding of the VHH has agonistic effects, primary CLL PBMCs were cultured with the indicated concentrations of V19S76K-5C8, medium control or rmCD40L for 48 hours and analyzed by flow cytometry as described in Example 4.

[2] = biological target: T2, human CD40 (human, UniProt P25942 21-277); test: cell-based or functional assay
T2 sequence (P25942 21-277 limits assumed): as the sequence (P25942 21-277) above

[3] = biological target: T2, human CD40; test: flow cytometry, CD40-transfected HEK293T cells, VHH 1 µM, Myc-tag detection; controls: cells without VHH and WT HEK293T with and without VHH
Method: FIG. 1: Anti-CD40 VHHs bind to CD40-expressing cells. (A) CD40 expression on WT (filled histogram) and CD40-transfected (unfilled histogram) HEK293T cells. (B) CD40-negative WT or CD40-transfected HEK293T cells were incubated with V12t (1 μM), V15t (1 μM), V19t (1 μM) or medium control and the Myc-tag was subsequently detected by flow cytometry. Representative histograms obtained in 3 independent experiments are shown.

[4] = biological target: T3, human CD40 (CD40-transfected HEK293T cells) (Homo sapiens, UniProt P25942); test: Monovalent VHH binding to CD40-transfected HEK293T cells, Myc-tag flow cytometry; conditions: for average geometric mean fluorescence intensity (Myc-tag): CD40-transfected HEK293T cells, 2 experiments
T3 construct: expressed in transfected cells; host or cells: HEK293T
T3 sequence (P25942 21-277): as above
Method: The embryonic kidney cell line HEK293T, either wildtype (WT) or transfected with human CD40, was grown in Dulbecco's Modified Eagle Medium (41965-039, Thermo Fisher Scientific, Waltham, Mass., USA), supplemented with 10% fetal calf serum (F7524, Merck, Kenilworth, N.J., USA), 200 mM L-glutamine (25030-123, Thermo Fisher Scientific), 0.05 mM β-mercapto-ethanol (M6250, Merck) and 10,000 U/mL penicillin/streptomycin (15140-122, Thermo Fisher Scientific), hereafter referred to as complete DMEM.
CD40 expression on CD40-transfected cells was confirmed by incubation with a PE-conjugated anti-CD40 antibody (IM1936U, Beckman Coulter, Brea, Calif., USA) for 20 minutes at 4° C. […] Bound VHH was detected by sequential incubation with mouse-anti-Myc tag (05-274, Merck) and AF488-conjugated goat-anti-mouse (A-11001, Thermo Fisher Scientific) antibodies for 20 minutes at 4° C.
Samples were measured on a FACSCanto cytometer (BD Biosciences, Franklin Lakes, N.J., USA) and analyzed with Flowjo MacV10.

[5] = biological target: T1, CD40; test: CD40 antagonistic activity in primary CLL cells: pre-incubation, then rmCD40L for 48 h; assay type: cell-based; conditions: 30 min pre-incubation, then rmCD40L 100 ng/mL for 48 hours; FIG. 4A-C
Method: PBMCs (≥90% CD5^+CD19^+) from untreated CLL patients were obtained and cryopreserved as described in […]. Thawed cells were kept in complete IMDM.
To test whether the VHH antagonizes CD40 stimulation, primary CLL PBMCs were pre-incubated with VHH or medium control for 30 minutes at 37° C. and subsequently cultured for 48 hours in the presence of rmCD40L (100 ng/mL).
After 48 hours, cells were analyzed by flow cytometry as described in Example 4.
To assess whether binding of the VHH has antagonistic effects, primary CLL PBMCs were pre-incubated with V19S76K-5C8 or medium control and then cultured with rmCD40L for 48 hours and analyzed by flow cytometry as described in Example 5.

[6] = system: CD40+ CII target cells; test: Cytotoxicity assay: CII target cells with Vγ9Vδ2-T cells; assay type: cell-based, human; conditions: overnight with Vγ9Vδ2-T cells, 1:1 ratio; FIG. 11A
Method: CD40^+ CII cells and Vγ9Vδ2-T cells were grown as described in Example 7.
CII target cells were labeled with carboxyfluorescein succinimidyl ester (CFSE; C1157, Thermo Fisher Scientific) and incubated with VHH or medium control for 30 minutes at 37° C. Target cells were then cocultured overnight with Vγ9Vδ2-T cell lines in a 1:1 ratio.
Viability was measured as described in Example 4.

rmCD40L: recombinant multimeric CD40 ligand, 100 ng/mL, Bioconnect [reference compound]
CD40 stimulation (expression of CD80, CD86 and CD95) ([1]; FIG. 7A-C): effectively induced CD40 stimulation
CD40 stimulation (viability, CD86 and CD95 expression) [1]: effectively induced CD40 stimulation

B1: V12-5C8t (bispecific antibody)
chain: QVQLQESGGGLVQAGGSLRLSCAASGLVFKRYSMNWYRQPPGQQRGLVASISDSGVSTNYADSVKGRFTISRDNAKNIGYLQMNSLKPEDTAVYYCNMHTFWGQGTQVTVSSGGGGSEVQLVESGGGLVQAGGSLRLSCAASGRPFSNYAMGWFRQAPGKEREFVAAISWSGGSTSYADSVKGRFTISRDNAKNTVYLQMNSPKPEDTAIYYCAAQFSGADYGFGRLGIRGYEYDYWGQGTQVTVSSGLEGHSDHMEQKLISEEDLNRISDHHHHHH
lysis of primary CLL cells by Vγ9Vδ2-T cells (specific cell death) at 100 nM [2]: 45.3%

B2: V15-5C8t (bispecific antibody)
chain: EVQLQESGGGLVQAGGSLRLSCVTSGSAFSSDTMGWFRQAPGKQRELVASISSRGVREYADSVKGRFTISRDNAKNTVYLQMNSLQPEDTAVYYCNRGALGLPGYRPYNNWGQGTQVTVSSGGGGSEVQLVESGGGLVQAGGSLRLSCAASGRPFSNYAMGWFRQAPGKEREFVAAISWSGGSTSYADSVKGRFTISRDNAKNTVYLQMNSPKPEDTAIYYCAAQFSGADYGFGRLGIRGYEYDYWGQGTQVTVSSGLEGHSDHMEQKLISEEDLNRISDHHHHHH
lysis of primary CLL cells by Vγ9Vδ2-T cells (specific cell death) at 100 nM [2]: 70.5%

B3: V19-5C8t (bispecific antibody)
chain: QVQLQESGGGLVQAGGSLRLSCAASGRTFGRSAMGWFRQAPGKEREFVAAIGTRGGSTKYADSVKGRFTISTDNASNTVYLQMDSLKPEDTAVYRCAVRGPGYPSAAIFQDEYHYWGQGTQVTVSSGGGGSEVQLVESGGGLVQAGGSLRLSCAASGRPFSNYAMGWFRQAPGKEREFVAAISWSGGSTSYADSVKGRFTISRDNAKNTVYLQMNSPKPEDTAIYYCAAQFSGADYGFGRLGIRGYEYDYWGQGTQVTVSSGLEGHSDHMEQKLISEEDLNRISDHHHHHH
lysis of primary CLL cells by Vγ9Vδ2-T cells (specific cell death) at 100 nM [2]: 68.5%

B4: V12t (VHH)
VHH: QVQLQESGGGLVQAGGSLRLSCAASGLVFKRYSMNWYRQPPGQQRGLVASISDSGVSTNYADSVKGRFTISRDNAKNIGYLQMNSLKPEDTAVYYCNMHTFWGQGTQVTVSS
notes: Llama VHH with C-terminal Myc- and His6-tag; also called monovalent anti-CD40 VHH V12t
binding result [3]: binds

B5: V15t (VHH)
VHH: EVQLQESGGGLVQAGGSLRLSCVTSGSAFSSDTMGWFRQAPGKQRELVASISSRGVREYADSVKGRFTISRDNAKNTVYLQMNSLQPEDTAVYYCNRGALGLPGYRPYNNWGQGTQVTVSS
notes: Llama VHH with C-terminal Myc- and His6-tag; also called monovalent anti-CD40 VHH V15t
binding result [3]: binds

B6: V12t: monovalent anti-CD40 VHH V12 with C-terminal Myc- and His6-tag, SEQ ID NO:36 (protein)
VHH: QVQLQESGGGLVQAGGSLRLSCAASGLVFKRYSMNWYRQPPGQQRGLVASISDSGVSTNYADSVKGRFTISRDNAKNIGYLQMNSLKPEDTAVYYCNMHTFWGQGTQVTVSSGLEGHSDHMEQKLISEEDLNRISDHHHHHH
modifications: antibody sequence
CD40 stimulation (viability, CD86 and CD95 expression) [1]: did not induce any of these effects
binding to CD40-expressing cells ([4]; detection of the Myc tag, FIG. 1B): bound to the CD40-expressing cells
prevention of CD40L-induced CD40 stimulation (viability, CD86 and CD95 expression) [5]: did not block CD40L-induced effects

B7: V19S76Kt: V19t VHH in which serine at position 76 (putative glycosylation site) was altered into lysine, SEQ ID NO:22 (protein)
VHH: QVQLQESGGGLVQAGGSLRLSCAASGRTFGRSAMGWFRQAPGKEREFVAAIGTRGGSTKYADSVKGRFTISTDNAKNTVYLQMDSLKPEDTAVYRCAVRGPGYPSAAIFQDEYHYWGQGTQVTVSSGLEGHSDHMEQKLISEEDLNRISDHHHHHH
modifications: antibody sequence
binding affinity to CD40 after S76K mutation, relative to V19t [4]: retained
average geometric mean fluorescence intensity (Myc-tag) ([4]; VHH concentration 1 pM): 4790
average geometric mean fluorescence intensity (Myc-tag) ([4]; VHH concentration 10 pM): 4949
average geometric mean fluorescence intensity (Myc-tag) ([4]; VHH concentration 100 pM): 5502
average geometric mean fluorescence intensity (Myc-tag) ([4]; VHH concentration 1 nM): 7906
average geometric mean fluorescence intensity (Myc-tag) ([4]; VHH concentration 10 nM): 9283
average geometric mean fluorescence intensity (Myc-tag) ([4]; VHH concentration 100 nM): 17062

B8: V12-5C8t: bispecific VHH: anti-CD40 V12 joined to anti-Vδ2-TCR 5C8 by Gly4Ser linker, Myc- and His6-tag, SEQ ID NO:37 (protein)
VHH: B1 chain
modifications: antibody sequence
lysis of CII target cells [6]: less potent
